Measured values taken from paper PMC4773404, “Activation of a synapse weakening pathway by human Val66 but not Met66 pro-brain-derived neurotrophic factor (proBDNF)” (Pharmacological Research, 2016).

Key:
Experiment in all cases: SPR; Biacore T200; receptor domains amine-coupled to CM5-S Series chips; analytes 0-20 nM flowed over; 10 mM HEPES, 150 mM NaCl, 3 mM EDTA, 0.05% surfactant P20, pH 7.4; double-referenced; 1:1 Langmuir fit
Conditions in all cases: both partners purified
[1] = target: T1, brain-derived neurotrophic factor (BDNF)
T1 construct: mature BDNF (~14 kDa), the cut product of proBDNF; used as control analyte in SPR; also called mature BDNF
T1 sequence (P23560 19-247, species assumed, looked up): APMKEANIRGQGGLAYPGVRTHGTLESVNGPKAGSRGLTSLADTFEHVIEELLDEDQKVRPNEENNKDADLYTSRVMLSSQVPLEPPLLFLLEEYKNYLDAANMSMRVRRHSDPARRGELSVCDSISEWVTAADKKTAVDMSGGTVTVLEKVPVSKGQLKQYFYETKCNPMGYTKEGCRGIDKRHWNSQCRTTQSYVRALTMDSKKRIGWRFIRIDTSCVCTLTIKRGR

[2] = target: T2, human proBDNF Val66, furin cleavage-resistant (FCR) (human)
T2 construct: furin site 127RR128 changed to AA; non-glycosylated; Cloned in pET 24a(+); also called proBDNF FCR Val66
T2 sequence (P23560 whole entry, looked up): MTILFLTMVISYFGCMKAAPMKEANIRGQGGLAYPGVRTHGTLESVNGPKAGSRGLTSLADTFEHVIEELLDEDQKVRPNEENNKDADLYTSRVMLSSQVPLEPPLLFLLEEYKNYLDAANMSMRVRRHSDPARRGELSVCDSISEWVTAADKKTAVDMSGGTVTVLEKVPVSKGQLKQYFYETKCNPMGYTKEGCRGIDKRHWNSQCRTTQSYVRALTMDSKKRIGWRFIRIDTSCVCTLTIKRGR

[3] = target: T3, human proBDNF Met66, furin cleavage-resistant (FCR) (human)
T3 construct: furin site 127RR128 changed to AA; non-glycosylated; Cloned in pET 24a(+); also called proBDNF FCR Met66
T3 sequence (P23560 whole entry, looked up): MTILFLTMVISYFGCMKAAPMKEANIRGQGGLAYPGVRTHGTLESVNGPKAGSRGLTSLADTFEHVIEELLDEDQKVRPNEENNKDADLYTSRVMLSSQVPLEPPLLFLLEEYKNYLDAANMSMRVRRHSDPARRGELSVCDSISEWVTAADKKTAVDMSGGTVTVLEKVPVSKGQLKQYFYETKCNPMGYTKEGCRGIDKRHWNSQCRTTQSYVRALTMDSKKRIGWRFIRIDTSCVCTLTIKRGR

Kd [1]: 0.58 nM
koff [1]: 0.00232 s⁻¹
kon [1]: 4.57e+06 M⁻¹ s⁻¹
Kd [2]: 2.32 nM
koff [2]: 0.00367 s⁻¹
kon [2]: 1.61e+06 M⁻¹ s⁻¹
Kd [3]: 2.03 nM
koff [3]: 0.00392 s⁻¹
kon [3]: 1.99e+06 M⁻¹ s⁻¹
B1: TrkB immunoglobulin-like domain 2 (TrkBIg2) (domain or fragment)
chain: APTITFLESPTSDHHWCIPFTVKGNPKPALQWFYNGAILNESKYICTKIHVTNHTEYHGCLQLDNPTHMNNGDYTLIAKNEYGKDEKQISAHFMGWPG
